Patent publication US20260193342A1 (ZOETIS SERVICES, published 2026)
Where a chain is given by its changes, count along the chain named. In names and notes the source's numbering stands.

Tests used:
[1] = target: IL-31 (target protein of mAb1); experiment: SPR (Biacore T200), target amine-coupled to CM5, antibody flowed, 15 C, 1:1 model
[2] = target: T1, canine FcRn complex (FcRn-α subunit and β-microglobulin) (canine, UniProt A0A8I3PFR8 25-347, biotin on the BAP tag by BirA (Example 5 only)); experiment: SPR (Biacore), biotinylated FcRn on SA chip, IgG flowed, pH 6, 15 C
[3] = target: IL-31 (target protein of mAb1); experiment: cell-based or functional assay
[4] = target: T1, canine FcRn complex (FcRn-α subunit and …); experiment: SPR (Biacore), FcRn amine-coupled to CM5, IgG flowed, pH 6, 15 C
[5] = target: T1, canine FcRn complex (FcRn-α subunit and …); experiment: SPR (Biacore), biotinylated FcRn on SA chip, IgG flowed, pH 7.4, 15 C
[6] = target: T1, canine FcRn complex (FcRn-α subunit and …); experiment: SPR (Biacore), biotinylated FcRn on SA chip, IgG flowed, pH 6, 15 C; remark: listed apart in the source
[7] = target: T1, canine FcRn complex (FcRn-α subunit and …); experiment: SPR (Biacore), biotinylated FcRn on SA chip, IgG flowed, pH 7.4, 15 C; remark: listed apart in the source
[8] = target: T1, canine FcRn complex (FcRn-α subunit and …); experiment: SPR (Biacore), FcRn amine-coupled to CM5, IgG flowed, pH 7.2, 15 C
[9] = target: NGF (target protein of mAb2); experiment: SPR (Biacore T200), target amine-coupled to CM5, antibody flowed, 15 C, 1:1 model
[10] = target: canine FcRn complex (FcRn-α subunit and β-microglobulin) (canine); experiment: SPR (Biacore), FcRn amine-coupled to CM5, IgG flowed, pH 6, 15 C
[11] = target: NGF (target protein of mAb2); experiment: cell-based or functional assay
[12] = target: canine FcRn complex (FcRn-α subunit and β-microglobulin) (canine); experiment: SPR (Biacore), FcRn amine-coupled to CM5, IgG flowed, pH 7.2, 15 C

T1 sequence (A0A8I3PFR8 entry or part of it, one chain of several): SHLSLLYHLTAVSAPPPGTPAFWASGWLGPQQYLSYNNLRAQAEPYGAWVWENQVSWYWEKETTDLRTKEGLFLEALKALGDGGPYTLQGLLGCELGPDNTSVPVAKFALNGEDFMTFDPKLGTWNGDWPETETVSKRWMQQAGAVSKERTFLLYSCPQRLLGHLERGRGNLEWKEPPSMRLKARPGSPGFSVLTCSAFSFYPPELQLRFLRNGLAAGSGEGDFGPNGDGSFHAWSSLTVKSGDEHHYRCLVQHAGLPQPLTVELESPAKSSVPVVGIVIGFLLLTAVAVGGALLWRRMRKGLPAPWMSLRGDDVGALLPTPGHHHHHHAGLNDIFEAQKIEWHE

B1: mAb1, caninized anti-IL31 antibody 34D03, canine IgGB (65), WT (antibody)
heavy: EVQLVESGGDLVKPGGSLRLSCVASGFTFSNYGMSWVRQAPGKGLQWVATISYGGSYTYYPDNIKGRFTISRDNAKNTLYLQMNSLRAEDTAMYYCVRGYGYDTMDYWGQGTLVTVSSASTTAPSVFPLAPSCGSTSGSTVALACLVSGYFPEPVTVSWNSGSLTSGVHTFPSVLQSSGLYSLSSMVTVPSSRWPSETFTCNVAHPASKTKVDKPVPKRENGRVPRPPDCPKCPAPEMLGGPSVFIFPPKPKDTLLIARTPEVTCVVVDLDPEDPEVQISWFVDGKQMQTAKTQPREEQFNGTYRVVSVLPIGHQDWLKGKQFTCKVNNKALPSPIERTISKARGQAHQPSVYVLPPSREELSKNTVSLTCLIKDFFPPDIDVEWQSNGQQEPESKYRTTPPQLDEDGSYFLYSKLSVDKSRWQRGDTFICAVMHEALHNHYTQESLSHSPGK
VL: EIVMTQSPASLSLSQEEKVTITCKASQSVSFAGTGLMHWYQQKPGQAPKLLIYRASNLEAGVPSRFSGSGSGTDFSFTISSLEPEDVAVYYCQQSREYPWTFGQGTKLEIK
notes: VH/VL: the caninized 34D03 entries of the listing; also called mAb1 WT; mAb1 Wild-Type
- Kd [1]: 0.483 nM
- Kd [2]: 19.9 nM
- IC50 (cell based potency assay) [3]: 1.1 nM
- Kd [4]: 15 to 24.4 nM
- Kd [5]: 18700 nM

B2: mAb1, caninized anti-IL31 antibody 34D03, canine IgGB, N434L (antibody)
heavy: B1 heavy with N440L
light: EIVMTQSPASLSLSQEEKVTITCKASQSVSFAGTGLMHWYQQKPGQAPKLLIYRASNLEAGVPSRFSGSGSGTDFSFTISSLEPEDVAVYYCQQSREYPWTFGQGTKLEIKRNDAQPAVYLFQPSPDQLHTGSASVVCLLNSFYPKDINVKWKVDGVIQDTGIQESVTEQDKDSTYSLSSTLTMSSTEYLSHELYSCEITHKSLPSTLIKSFQRSEC
notes: VH/VL: the caninized 34D03 entries of the listing; also called ID No. 14; copies: 2 + 2
- Kd [2]: 14.3 nM
- Kd [5]: 997 nM

B3: mAb1, caninized anti-IL31 antibody 34D03, canine IgGB, N434W (antibody)
heavy: B1 heavy with N440W
light: B2 light
notes: VH/VL: the caninized 34D03 entries of the listing; also called ID No. 21; copies: 2 + 2
- Kd [6]: 1.98 nM
- Kd [7]: 25300 nM

B4: mAb1, caninized anti-IL31 antibody 34D03, canine IgGB, N434S (antibody)
heavy: B1 heavy with N440S
light: B2 light
notes: VH/VL: the caninized 34D03 entries of the listing; also called ID No. 18; copies: 2 + 2
- Kd [6]: 20.2 nM
- Kd [7]: 6960 nM

B5: mAb1, caninized anti-IL31 antibody 34D03, canine IgGB (65), N434H (antibody)
heavy: B1 heavy with N440H
VL: B1 VL
notes: VH/VL: the caninized 34D03 entries of the listing; also called mAb1 N434H; mAb1 N434H Mutant
- Kd [1]: 0.373 nM
- Kd [6]: 6.45 nM
- IC50 (cell based potency assay) [3]: 0.99 nM
- Kd [4]: 0.7 to 1.3 nM
- Kd [8]: 5000 nM

B6: mAb1, caninized anti-IL31 antibody 34D03, canine IgGB, N434T (antibody)
heavy: B1 heavy with N440T
light: B2 light
notes: VH/VL: the caninized 34D03 entries of the listing; also called ID No. 19; copies: 2 + 2
- Kd [6]: 34.2 nM
- Kd [7]: 554 nM

B7: mAb1, caninized anti-IL31 antibody 34D03, canine IgGB, N434M (antibody)
heavy: B1 heavy with N440M
light: B2 light
notes: VH/VL: the caninized 34D03 entries of the listing; also called ID No. 15; copies: 2 + 2
- Kd [6]: 14.2 nM
- Kd [7]: 146000 nM

B8: mAb1, caninized anti-IL31 antibody 34D03, canine IgGB, N434Q (antibody)
heavy: B1 heavy with N440Q
light: B2 light
notes: VH/VL: the caninized 34D03 entries of the listing; also called ID No. 16; copies: 2 + 2
- Kd [6]: 5.91 nM
- Kd [7]: 21.8 nM

B9: mAb1, caninized anti-IL31 antibody 34D03, canine IgGB, N434R (antibody)
heavy: B1 heavy with N440R
light: B2 light
notes: VH/VL: the caninized 34D03 entries of the listing; also called ID No. 17; copies: 2 + 2
- Kd [6]: 0.906 nM
- Kd [7]: 3.11 nM

B10: mAb1, caninized anti-IL31 antibody 34D03, canine IgGB, N434V (antibody)
heavy: B1 heavy with N440V
light: B2 light
notes: VH/VL: the caninized 34D03 entries of the listing; also called ID No. 20; copies: 2 + 2
- Kd [6]: 6.16 nM
- Kd [7]: 2750 nM

B11: mAb2 of Tables 1-3, caninized anti-NGF antibody, canine IgGB (65), WT (antibody, part only; not given: Anti-NGF heavy and light variable domains, part only)
heavy, part: ASTTAPSVFPLAPSCGSTSGSTVALACLVSGYFPEPVTVSWNSGSLTSGVHTFPSVLQSSGLYSLSSMVTVPSSRWPSETFTCNVAHPASKTKVDKPVPKRENGRVPRPPDCPKCPAPEMLGGPSVFIFPPKPKDTLLIARTPEVTCVVVDLDPEDPEVQISWFVDGKQMQTAKTQPREEQFNGTYRVVSVLPIGHQDWLKGKQFTCKVNNKALPSPIERTISKARGQAHQPSVYVLPPSREELSKNTVSLTCLIKDFFPPDIDVEWQSNGQQEPESKYRTTPPQLDEDGSYFLYSKLSVDKSRWQRGDTFICAVMHEALHNHYTQESLSHSPGK
- Kd [9]: 0.0851 nM
- Kd [10]: 57.2 nM
- IC50 (cell based potency assay) [11]: 23.7 nM

B12: mAb2 of Tables 1-3, caninized anti-NGF antibody, canine IgGB (65), N434H (antibody, part only; not given: Anti-NGF heavy and light variable domains, part only)
heavy, part: B11 heavy, part with N322H
- Kd [9]: 0.0555 nM
- Kd [10]: 7.3 nM
- IC50 (cell based potency assay) [11]: 20.9 nM
- Kd [12]: 1300 nM
